Experiment: soluble on expression in E. coli; label from the status in PepcDB or PDB records

Q: Which “soluble on expression in E. coli” value does the source give for “MKKLINKKETFLTDMLEGLLIAHPELDLIANTVIVKKAKKEHGVAIVSGGGSGHEPAHAGFVAEGMLDAAVCGEVFTSPTPDKILEAIKAVDTGDGVLLVVKNYAGDVMNFEMAQELAEMEGINVQTVIVRDDIAVTNEVQRRGVAGTVFVHKLAGYLAEKGYSLTEIKSRVEALLPEIKSIGMAIEPPLVPTTGKYGFDIEDDKMEIGIGIHGEKGIHREEVKDIDHIVGTLLDELYKEVTANDVILMVNGMGGTPLSELNIVTKYIQQNLAARTVNVAKWFVGDYMTSLDMQGFSITIVPNKPEYLEAFLAPTTSQYFKLEHHHHHH” here?
A: Its value is “soluble”.

Q: With “MGSDKIHHHHHHMSRSDARICAIHQPNFFPWLGYFDKIVRADIFVLLDDVQYQKTGGNWTNRVQMMIGQGPKWVTAPVDRSYSGVRQIREIRFSPVEREWREKLCSTITASYGRAAYFREVYPFIEPIIMNDSDFLSDYNSHAIAALCDYLEIESSKLVRSSQFNLQNNATDLLIDITKAVGAVRYLCGGGAQGYQEDEKFPRHGIQLIYQNFCHPIYTQANDAPFQPGLSIVDALMHCGRRGVIELLNRK” as the sequence, how does the “soluble on expression in E. coli” value read?
A: The value was “not soluble”.

Q: For “MTELARLKFYATQPHSCSYLPEEQATTLFLDPSQPMDVHVYADLSEMGFRRSGDHLYRPHCQNCNACVPARIPAARFIPNRQQRRILKRNADLTVTAARPAFKEEYFELYRRYIETRHADGDMYPPSRDQFSTFLVRDLPFCWFYEFRLEGRLMAVAVCDLLPNGLSAVYTFYEPDEERRSLGRFAILWQITEALRQNLEAVYLGYWIKNCKKMNYKTQYRPIELLINQRWVTLNLEHHHHHH”, which “soluble on expression in E. coli” value is on record?
A: Its value is “not soluble”.

Q: Which “soluble on expression in E. coli” value does the source give for “MGSDKIHHHHHHMQILIYSYNYHPEPIGIAPLMTELAEGLVKRGHQVRVITGMPNYPQRQIYDRYRGKLYVTEQKNGVKIQRSYLRIKSKPNLIDRLLLELSFVFTSLPQALKGERPDVILLTIPPLLVCLPATLIGWLYNCPVVLNVQDILPEAGVRVGLIKNKLMIQALEALEKFAYRTAHTISVIADGFVDNLINKGVPANKIACIPNWVNLNFIRPLPKVNNSWRATHQLDGKFVVLYSGNIALTQGLETVIEAAARLRHLKEIIFVVAGESQALERLQKHCLACGADNVLLLTLQAREKLPQMLAAADVGLIVQKCNVISFNMPSKIPLLLASGRPIVGSVPALGTAAKAIRESGGGVIVEPESAGALAAAVLDLYHQPELAAQLGCKGRKFAVENYSFEQALDRYEELFADAIAKRATNLDILPEMSSKQSLVDI” here?
A: Its value is “not soluble”.

Q: With “MLIFRTSPMSRREKSLPIEPKYTKPQANGSSFPPIFTLEGSTPCKKTARKLIDPVVNSVDSLCYLARKIVKMQEEKKRQKSNSFLIDYLVGDNFITEFREQPAQASPAVDVEDPMVSLVLGCPFGAIGQERRMSQDFPFQRRSFDMVSNRTSTSESSSCSSTDNTYKNAGKFLSLQEYLEQNNLLPPSTMPFGENSGFHGYNPQMNVHNNSTRNGNVENREQRNNSTSPPRGNPPHPLCCCFCFGTASEFARLHTLPAPRKDDRGPWSDHCSKKRGRVVCPKLRSMVCGICGATGDNAHTTKHHLEAFGDD” as the sequence, how does the “soluble on expression in E. coli” value read?
A: The value was “not soluble”.

Q: For “MSLKILLLEDEVMLNESICEYLDSEGHHVESFFNGLAALEAIKENSYDLLVLDINVPGIDGLSFLEKIHELKIHVSVIYISALVDIEDISRAYTLGCHDYLKKPFHLKELSLRVDRIKLSSVVPRVHLRLCKNYSYDQENSTLLFNQEVQILTKRQAQIIDLLSRNRGRIVDFEQFQTYVWSEQIVDNATIRAEINRLKKNLKEDFVINVRGMGYMIDKEGHHHHHH”, which “soluble on expression in E. coli” value is on record?
A: Its value is “not soluble”.

Q: For “MAEDEIVVEEEQSQPQEITPVPPSSSSSPSLVVEDDDEMKLKHLEFIQVAAVYFAACFSTLYELAKDNAGPLKLGVENIEDCVRTVLAPLYEKFHDVPFKLLLFVDRKVDDVFFDVETYVPSLVKQASSQALTVATEVQRTGVVDTTKSIARSVRDKYEPAAEYYAATLWRLLNQLPLFPEVAHLVIPTAFYWSEKYNDAVRYVGDRDYFGAEYLPMIPIEKISDILEQDQCRAD”, which “soluble on expression in E. coli” value is on record?
A: The value was “not soluble”.

Q: Which “soluble on expression in E. coli” value does the source give for “MMFVKNNFNTNNFDAELVEAIGNRLENNQFSDAILAGTKYLTTLLREKGQCEGDGAQLVGTVLGGQSPRIQINSLQSVSEQDEQRGFEALLRGYYQCIRNPRTHDNFPDTEDSCMRILIMLDTFIKYLKRDVAEFDYTAILERIYEVHFVNNSDYAEALISQIPEKKLLDFFQSLISRFNERPTKEIDSIFKAINQRFSGEEEKAAMRLLGDELRKASNNVEFANVFRIIKPSAWRNLPDDVLIRMENIIIEECKKGYLDFYSDATKGAIGTWGNTFGSKFKRRGDLGDALIGLLYDSWYTQNYVAKYYVFSIPSIITDDVKVKELADALAYATIVNGAKLLRTKLIDACKNYPDKLKEHLRDAVQQRMDSDKKYAEELLGQIS” here?
A: The value was “not soluble”.

Q: With “MSLAATGNASKPSLNSFYADGLGQLRNGLFSCFQPVFGYFGTKTTVEIEKSEDELWEIPFDAISELEWLGSGSQGAVFRGQLENRTVAVKKVNQLKETEIKHLRHLRHQNIIEFLGVCSKSPCYCIVMEYCSKGQLCTVLKSRNTITRELFAQWVKEIADGMHYLHQNKVIHRDLKSPNILISAEDSIKICDFGTSHMQKKMDSTMMSFCGTVSWMAPEMIKKQPCNEKVDVYSFGVVLWEMLTRETPYANIAQMAIIFGVGTNILSLPMPEEAPKGLVLLIKQCLSQKGRNRPSFSHIRQHWEIFKPELFEMTEEEWQLAWDSYREFAKCIQYPSTVTRDHGGPKSAFAMEEEIQRKRHEQLNHIKDIRNMYEMKLKRTNKMYDKLQGCFTELKLKESELAEWEKDLTEREGHHHHHH” as the sequence, how does the “soluble on expression in E. coli” value read?
A: The value was “not soluble”.

Q: Which “soluble on expression in E. coli” value does the source give for “SLKNKTLIALLLACSPTLAFAHNLTVGSPVPAVGVEKHGEIVLQDNNINYQKWRSADLLGKVRVIQAIAGRSSSKEMNAPLMAAITAAKFPAESYQTTTIINQDDAIWGTSSFVKSSAQDSKKEFPWSSMVLDEFGLVAQAWQLQAESSAIIVQDKQGNVLFVKEGALNEADIQTVLGLIQQNL” here?
A: The value was “not soluble”.

Q: Which “soluble on expression in E. coli” value does the source give for “MGSDKIHHHHHHVDLGHDVTLFASGDSITSAKLDACWPRALRLDPTIRDALAPHMLMMEKVRKVAHEFDVLHFHLDYMPFPLFTTMDTPFVTTLHGRLDLPELQPVFDACSNVPVVSISDSQRQPLPQANWLNTIYHGLPEQLLTPQAHKKPEYLAFLGRICPEKRVDTAIRIAAQSGLPLKIAAKVDKVDQEYFKREIEPLLSMAHVEFVGEINEAQKPEFLSSAKALLFPIDWSESFGLVMIESMACGTPVIAFNRGSVPEVIDHGVTGYIVEDVQGAVAALQRLDELSRTEMRGRRLNLPLEKMRDWRIGSRVCRHHAG” here?
A: Its value is “not soluble”.

Q: Which “soluble on expression in E. coli” value does the source give for “MSAVLNGKKPVSILLLGTDTGALGRNYKGRTDTIILATINPKTKTTTLMSLPRDSEVAVSGFEQDFPTKLNAAYAYGSAGTTIKTVQKWLNVPIDYYALINMGGMKKVVDEIGGVDITPIRTFTYEGYTFTKGQKEHMNGAKALAYSRMRYDDPLGDYGRQQRQRQLITAIIGESASASNLLKQDFLNSLAKQTRTDLTFGNLTSIVTNYRSATKNIVSDHAQGTGKMIDGQSFEVVSQSEKQRVTNVLRKSLNLKAATTGEKFANQNLEHHHHHH” here?
A: Its value is “soluble”.

Q: With “MKDREIFAGLSTTVPFVLRLDGRSFHRFSKDRYKKPYDKVFSDAMVKTARALVTDSGLSPSFAYTFSDEISLYVPAPVFDCRVEKLASVSAAFAASAFTLYAGASEPLAFDARVIPIEEGLFPAYLSWRQAEAWRNHMNGYAQKILQDEGVSPTNAQKQLDGMNAAALHEFAFSRGVNLALTPAWERRGICIYRDVVMRDGYNPIKDEKVSVERTIAVIDEDVPLFKSPEGTAWVLSKIRLEHHHHHH” as the sequence, how does the “soluble on expression in E. coli” value read?
A: The value was “not soluble”.

Q: With “MASDYKDDDDKRRRGMEGAKLSAVRIAVREAPYRQFLGRREPSVVQFPPWSDGKSLIVDQNEFHFDHAFPATISQDEMYQALILPLVDKLLEGFQCTALAYGQTGTGKSYSMGMTPPGEILPEHLGILPRALGDIFERVTARQENNKDAIQVYASFIEIYNEKPFDLLGSTPHMPMVAARCQRCTCLPLHSQADLHHILELGTRNRRVRPTNMNSNSSRSHAIVTIHVKSKTHHSRMNIVDLAGSEGVRRTGHEGVARQEGVNINLGLLSINKVVMSMAAGHTVIPYRDSVLTTVLQASLTAQSYLTFLACISPHQCDLSETLSTLRFGTSAKAAALEHHHHHH” as the sequence, how does the “soluble on expression in E. coli” value read?
A: Its value is “soluble”.

Q: With “MRIGELSKETGVSERSLRHYEEKGLLPSKRLANGYRDFDESAIEKVELIQMYLQIGLNLEETARMLRCLEIEPHLYDNPCSSILTLYEDKLNEVTKQITLLSNIQANLQKHVSLLKQAKEKE” as the sequence, how does the “soluble on expression in E. coli” value read?
A: Its value is “not soluble”.

Q: For “YNIYNNPKEANNRKDTVLYLMHKHNRINDKQYADAKKIDLKANLVERTKKERQVTGNEKNPEYDSYVNFVQSELMNNKYFKDKNLGSVLQSG”, which “soluble on expression in E. coli” value is on record?
A: Its value is “not soluble”.

Q: Which “soluble on expression in E. coli” value does the source give for “MGSDKIHHHHHHMEKQNNHIDRRGFLKIVGISAATTTAALYGCGSGTKSSQGRNASSPVPTDQMTYRSVGGIKDKVSLLGYGCMRWPTVPSPEGKGDLINQEAVNELVDYAIAHGVNYFDTSPVYVQGWSEKATGIALKRHPREKLYIATKLSNFSNFSRENSLAMYHQSFKDMQVEYFDYYLLHAIGGGGMKVFNERYIDNGMLDFLLKEREAGRIRHLGWSFHGDVEVFDQVLAMHDTVKWDFVQIQLNYVDWRHATGNNVNAEYLYGELAKRNIAAVIMEPLLGGRLSNVPEHIVGRLKQRRPEDSVASWAFRFAGSPELVLTVLSGMTYMEHLQDNIRTYSPLVPLTDDDKEYLEETAQLMMQYPTIPCNDCKYCMPCPYGIDIPAILVHYNKCVNEGNIPQSQTSENYKEARRAFLVGYDRSVPKLRQASHCIGCNQCTPHCPQSIHIPEELHRIDRFVEQLKQGTL” here?
A: Its value is “not soluble”.

Q: With “MIKYSIRGENIEVTEAIREYVETKLSKVEKYFNEAQELDTRVNLKVYREKTAKVEVTILIDSITLRAEDVSQDMYGSIDLVVDKIERQIRKNKTKIAKKYREKIPASQVFTTEFEAEPDEEAVSQRIVRTKNVNLKPMDVEEALLQMELLGHDFFIYTDAEDNTTNVLYKREDGELGLIEAKGNLEHHHHHH” as the sequence, how does the “soluble on expression in E. coli” value read?
A: The value was “soluble”.

Q: For “MGSDKIHHHHHHADDDKPIQVSQMPQKAQQFIKQHFAGSNIAMAKVESDFLQKSYDVIFTDGNKVEFDKKGNWTEVNCKFSVVPQGIIPSPIQKYTATNYPDAKVLKIERDKTDYEVKLSNGWELKFDSKFNLIDIDN”, which “soluble on expression in E. coli” value is on record?
A: The value was “not soluble”.

Q: For “GDVVEAVENAVARVADTIGSGPSNSQAVPALTAVETGHTSQVTPSDTVQTRHVKNYHSRSESSIENFLSRSACVYMGEYHTTNSDQTKLFASWTISARRMVQMRRKLEIFTYVRFDVEVTFVITSKQDQGTQLGQDMPPLTHQIMYIPPGGPIPKSVTDYTWQTSTNPSIFWTEGNAPPRMSIPFISIGNAYSNFYDGWSHFSQNGVYGYNTLNHMGQIYVRHVNGSSPLPMTSTVRMYFKPKHVKAWVPRPPRLCQYKNASTVNFSPTDITDKRNSITYIPDTVKPDVSNH”, which “soluble on expression in E. coli” value is on record?
A: Its value is “soluble”.

Q: Which “soluble on expression in E. coli” value does the source give for “MKKGTPLPHSDELDAGNVLAVENLNIAFMQDQQKIAAVRNLSFSLQRGETLAIVGESGSGKSVTALALMRLLEQAGGLVQCDKMLLQRRSREVIELSEQNAAQMRHVRGADMAMIFQEPMTSLNPVFTVGEQIAESIRLHQNASREEAMVEAKRMLDQVRIPEAQTILSRYPHQLSGGMRQRVMIAMALSCRPAVLIADEPTTALDVTIQAQILQLIKVLQKEMSMGVIFITHDMGVVAEIADRVLVMYQGEAVETGTVEQIFHAPQHPYTRALLAAVPQLGAMKGLDYPRRFPLISLEHPAKQAPPIEQKTVVDGEPVLRVRNLVTRFPLRSGLLNRVTREVHAVEKVSFDLWPGETLSLVGESGSGKSTTGRALLRLVESQGGEIIFNGQRIDTLSPGKLQALRRDIQFIFQDPYASLDPRQTIGDSIIEPLRVHGLLPGKDAAARVAWLLERVGLLPEHAWRYPHEFSGGQRQRICIARALALNPKVIIADEAVSALDVSIRGQIINLLLDLQRDFGIAYLFISHDMAVVERISHRVAVMYLGQIVEIGPRRAVFENPQHPYTRKLLAAVPVAEPSRQRPQRVLLSDDLPSNIHLRGEEVAAVSLQCVGPGHYVAQPQSEYAFMRR” here?
A: Its value is “not soluble”.

Q: For SVSEIQLMHNLGKHLNSMERVEWLRKKLQDVHNF, which “soluble on expression in E. coli” value is on record?
A: The value was “soluble”.

Reference: the DeepSol protein solubility set
